# Reference: patent publication US20260176331A1
# Legend:
# [1] = molecular target: human FcγRIIβ on CHOK1 cells (human) (UniProt P31994); test: ratio of flow cytometry EC50s, reference FcγRIIα (R131) on CHOK1 cells
# [2] = molecular target: Hu FcgRIIA_R167 (human) (UniProt P12318); test: kinetics, antibody captured on protein A/G chip, FcγR injected as analyte
# [3] = molecular target: Hu FcγRIIβ (human) (UniProt P31994); test: as above
# UniProt P12318, sequence (P12318 36-218 H167R limits assumed): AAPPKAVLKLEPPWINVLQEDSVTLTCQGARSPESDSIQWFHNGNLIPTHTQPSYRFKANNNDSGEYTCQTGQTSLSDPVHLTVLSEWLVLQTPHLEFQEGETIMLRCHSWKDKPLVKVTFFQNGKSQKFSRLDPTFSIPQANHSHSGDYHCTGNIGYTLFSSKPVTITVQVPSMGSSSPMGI
substance,measurement,setting,value
IgG1 P238D (antibody),IIa/IIb (ratio of EC50),[1],77.8
same,Fold (KD(IgG WT)/KD(variants)),[2],< 0.3 fold
same,Kd,[2],> 5 µM
same,Fold (KD(IgG WT)/KD(variants)),[3],3.18 fold
